For assay [1], the target named is human CD1a expressed on cells (human) (UniProt P06126). The assay is described as follows: flow cytometry, ear skin cells of a CD1a transgenic mouse given isotype control (panel 'CD1a : iso'), stained with anti-CD1a SK9; cell population not named on the sheet. In general terms: In flow cytometry, cells or beads pass a laser one at a time.
Assay [2] shares this target. Description: flow cytometry, ear skin cells of a CD1a transgenic mouse given antibody 116 (100 ug i.p. on days 0, 2 and 4; panel 'CD1a : OX116'), stained on day 5 with anti-CD1a SK9.
For assay [3] the target is unchanged. The assay is described as follows: flow cytometry, ear skin cells of a CD1a transgenic mouse given antibody 116 (100 ug i.p. on days 0, 2 and 4; row 'CD1a : OX116'), stained on day 5 with anti-CD1a HI149; the cloud of cells lies at the lower edge of the gate.
Assay [4] shares this target. Description: flow cytometry, ear skin cells of a CD1a transgenic mouse given isotype control (row 'CD1a : iso'), stained with anti-CD1a HI149; cell population not named on the sheet.
Assay [5] has as its target Cynomolgus monkey CD1a protein (Cynomolgus monkey). Description: ELISA, Ab 0.01 µg/ml. On the technique in general: ELISA stands for enzyme-linked immunosorbent assay.
Assay [6] deals with Cynomolgus monkey CD1a expressed on HEK-293 cells (Cynomolgus monkey). Description: flow, HEK-293, Ab 0.01 µg/ml.
Assay [7] addresses Cynomolgus monkey CD1a protein (Cynomolgus monkey). Description: ELISA, Ab 0.1 µg/ml.
The target is the same in assay [8]. Description: ELISA, Ab 10 µg/ml.
Assay [9] has as its target T1, human CD1b expressed on HEK-293 cells (human, UniProt P29016 18-333; P61769 21-119).
T1 construct: whole, on cells; also called HEK - CD1b
Description: flow cytometry, HEK-293.
Description: (§1) CD1a-specific antibodies were identified by flow cytometry. Binding to proteins expressed on HEK, CIR and MOLT4 cell lines was assessed. […] The C1R-CD1a, C1R-empty vector and MOLT4 cell lines were washed in 1×PBS on the day required. All cell lines were counted and resuspended in 1×PBS and then stained for 30 minutes at 37° C. using the DiI or DiO cellular stains (Invitrogen). Cells were washed with flow cytometry buffer (1% bovine serum albumin, 2 mM EDTA and 0.1% sodium azide in PBS) before mixing 2 DiI-stained and DiO-stained populations together. The cells (20 μl/well) were then added to dilutions of antibody sample (B cell culture supernatant, TAP supernatant, clone supernatant, purified antibody solution) (20 μl/well) and incubated for 1 hour at 4° C. in a flow cytometry assay plate, before being washed with flow cytometry buffer. 10 μl/well of Alexafluor647-conjugated goat anti-species IgG Fc-specific F(ab′)2 fragment (Jackson ImmunoResearch), diluted 1:2500 in flow cytometry buffer, was added and incubated at 4° C. for 30 minutes, followed by washing with wash buffer. The fluorescence intensity was then measured on an iQue screener PLUS.
(§2) HEK-293 cells were transiently transfected with human CD1a, CD1b, CD1c or CD1d and co-transfected with human β2M.

The target in assay [10] is T2, human CD1c expressed on HEK-293 cells (human, UniProt P29017 18-333; P61769 21-119).
T2 construct: whole, on cells; also called HEK - CD1c
Description: flow cytometry, HEK-293.
Description: as §1, §2

Assay [11] deals with T3, human CD1d expressed on HEK-293 cells (human, UniProt P15813 20-335; P61769 21-119).
T3 construct: whole, on cells; also called HEK - CD1d
Description: flow cytometry, HEK-293.
Description: as §1, §2

Assay [12] concerns the target Cynomolgus monkey CD1a protein (Cynomolgus monkey). Description: ELISA, Ab 1 µg/ml.
The target of assay [13] is Cynomolgus monkey CD1a expressed on HEK-293 cells (Cynomolgus monkey). The assay is described as follows: flow, HEK-293, Ab 10 µg/ml.
Assay [14] shares this target. The assay is described as follows: flow, HEK-293, Ab 0.1 µg/ml.
The target is the same in assay [15]. Description: flow, HEK-293, Ab 1 µg/ml.
The target in assay [16] is T4, Human CD1a/beta2m heterodimer (HEK293S, deglycosylated, zippers and tags cleaved) (human, UniProt P61769 21-119).
T4 construct: Protein of the crystal structures and of the Biacore 3000 SPR experiments; Carries endogenous lipids (CD1a-endo) or a loaded lipid (named under assay); also called CD1a-endo; CD1a loaded with a specific lipid
The assay is described as follows: SPR (Biacore 3000): biotinylated OX116 scFv on a streptavidin chip, CD1a-GD3 (CD1a loaded with GD3 ganglioside) injected up to 1000 nM; 1:1 specific binding fit; unit from the legend paragraph 293. In general terms: Surface plasmon resonance follows binding to a sensor surface in real time, without labels.
Description: (§3) Depending on the experiment biotinylated scFv molecules were coupled onto the chip surface until a total of 150 or 1000 response units per flow cell were achieved. […] Each lipid was solubilised up to 5-10 mM in 20 mM Tris pH8, 150 mM NaCl and 0.5% CHAPS. CD1a-endo was incubated at room temperature overnight with 15-40× molar excess of lipid. The mixture was subsequently purified by anion exchange chromatography using a MonoQ column (GE Healthcare). Fractions corresponding to lipid-loaded CD1a were pooled together and up-concentrated to 5 μM. Serial dilutions of CD1a up to a maximum concentration of 1 μM were injected for 60 s at 25 C in 20 mM Tris pH8, 150 mM NaCl buffer. The dissociation time between the injections was between 5 minutes up to 1 h. […] Each injection cycle consisted of a 60 s injection of 1 μM CD1a alone immediately followed by increasing concentrations of TCRs (0 to 50 μM) supplemented with 100 nM CD1a to prevent further dissociation of CD1a from the coupled Ab fragment. The runs were performed at 25 C in 20 mM Tris pH8, 150 mM NaCl, 0.5% BSA buffer. In all SPR experiments relative binding response was calculated by subtracting the non-specific response on a reference cell, where an unrelated protein was coupled. The binding curves were obtained by fitting the measured response to a 1:1 specific binding model in GraphPad.

For assay [17], the target named is T4, Human CD1a/beta2m heterodimer (HEK293S, …). The assay is described as follows: SPR (Biacore 3000): biotinylated OX116 scFv on a streptavidin chip, CD1a-SM24:1 (CD1a loaded with sphingomyelin 24:1) injected up to 1000 nM; 1:1 specific binding fit; unit from the legend paragraph 293.
Description: as §3
Assay [18] shares this target. Description: SPR (Biacore 3000): biotinylated OX116 scFv on a streptavidin chip, CD1a-endo (CD1a with endogenous lipids) injected up to 1000 nM; 1:1 specific binding fit; unit from the legend paragraph 293.
Description: as §3
The target is the same in assay [19]. The assay is described as follows: SPR (Biacore 3000): biotinylated OX116 scFv on a streptavidin chip, CD1a-LPC (CD1a loaded with lysophosphatidylcholine) injected up to 1000 nM; 1:1 specific binding fit; unit from the legend paragraph 293.
Description: as §3
The target is the same in assay [20]. Description: SPR (Biacore 3000): biotinylated OX16 scFv on a streptavidin chip, CD1a-endo (CD1a with endogenous lipids) injected up to 1000 nM; response fitted to a 1:1 specific binding model; unit from the legend paragraph 293.
Description: as §3
For assay [21] the target is unchanged. The assay is described as follows: SPR (Biacore 3000): biotinylated OX16 scFv on a streptavidin chip, CD1a-GD3 (CD1a loaded with GD3 ganglioside) injected up to 1000 nM; 1:1 specific binding fit; unit from the legend paragraph 293.
Description: as §3
For assay [22] the target is unchanged. The assay is described as follows: SPR (Biacore 3000): biotinylated OX16 scFv on a streptavidin chip, CD1a-SM24:1 (CD1a loaded with sphingomyelin 24:1) injected up to 1000 nM; 1:1 specific binding fit; unit from the legend paragraph 293.
Description: as §3
For assay [23] the target is unchanged. The assay is described as follows: SPR (Biacore 3000): biotinylated OX16 scFv on a streptavidin chip, CD1a-LPC (CD1a loaded with lysophosphatidylcholine) injected up to 1000 nM; 1:1 specific binding fit; unit from the legend paragraph 293.
Description: as §3

Regarding SK9 (antibody), the CD1a+ (gate frequency, percent of plotted cells; unit not given) stood at 84.9 in assay [1] and 87.4 in assay [2].

Regarding HI149 (antibody), the CD1a+ (gate frequency, percent of plotted cells; unit not given) in assay [3] is 46.6; in assay [4] it was 82.2.

B1: 77A (VR11851) (antibody, V domains shown)
VH: QSVEESGGRLVTPGTPLTLTCTVSGFSLSSYAMSWVRQAPGKGLEWIGIISSSGTTYYASWAKGRFTISKTSTTVDLKITSPTTEDTATYFCARVDYYSSGWGGLWGPGTLVTVSS
VL: AVEMTQTPASMSAAVGGTVTIKCQASEDIYSNLAWYQQKPGQPPKLLIYGASTLASGVPSRFKGSGSGTEYTLTISGVQCDDAATYYCQCTYDTSSYGNTFGGGTEMVVE
notes: V regions were 'cloned as either rabbit or mouse full length antibodies'; also called OX77a; antibody 77a
For B1, the Optical Density (OD) in assay [5] worked out at 0.1 OD; in assay [7] it was 0.24 OD; in assay [8] it was 0.52 OD; in assay [12], 0.43 OD. Moreover, the Fluorescence Intensity Geomean (normalized to background) (fold over background) in assay [6] was determined as 1.7; in assay [13], 1.4; in assay [14], 5.7; in assay [15] it was 10.6. For the same molecule, the binding result in assay [9], in [10] and in assay [11] was “no binding (tested: 100 µg/ml)” each time.

B2: 111 (VR12113) (antibody, V domains shown)
VH: QSVEESGGRLVTPGTPLTLTCTASGFSLSTYAMSWVRQAPGKGLEWIGIISSSGSTYYASWAKGRFTISKTSTTVDLKITSPTTEDTATYFCARETWYWLDLWGQGTLVTVSS
VL: AVEMTQTPASVSAAVGGTVTINCQASEDIYSNLAWYQQKPGQPPKLLIYGASTLASGVPSRFKGSGSGTEYTLTISGVQCDDAATYYCQCAYDSSSYGTPFGGGTEVVVK
notes: also called OX111
Consider B2, for which the Optical Density (OD) was found to be 0.48 OD in assay [5], 0.66 OD in assay [7], 0.79 OD in assay [8] and 0.69 OD in [12]. Also, the Fluorescence Intensity Geomean (normalized to background) (fold over background) was 8.9 in assay [6], 16.3 in assay [13], 25.8 in assay [14] and 12.9 in assay [15]. Also, the binding result in [9], in assay [10] and in [11] was “no binding (tested: 100 µg/ml)” in each case.

B3: OX116 scFv (scFv)
scFv: DAQSVEESGGRLVTPGTPLTLTCTVSGFSLSNYAMSWVRQAPGKGLEWIGIIYTTGFTYYASWVKGRFTISKTSTTVDLKITSPTTEDTATYFCARGLATYVSPPTRLDLWGQGTLVTVSSGGGGSGGGGSGGGGSAQVLTQTPSPVSAAVGGTVTINCQASQSIYNSKNLAWYQQKPGQPPKLLIYSASTLASGVPSRFKGSGSGTQFTLTISDLESDDAATYYCQGEFSCSSVDCATFGGGTEVVVKSGLEVLFQGPGSGLNDIFEAQKIEWHEHHHHHH
modifications: biotinylated on the C-terminal biotinylation tag (SPR only)
notes: The entry holds the leader, VH, linker, VL, 3C site, BirA tag and His tag; For crystallisation the BirA and His tags were cut off with 3C protease; also called OX116 Ab fragment
With B3, the Kd – broadly, the constant that tells how readily two partners part at equilibrium – in [16] came out at 329 nM; in assay [17], 529 nM; in [18], 483 nM; in assay [19] it was 1520 nM.

B4: 116 (VR12117) (antibody, V domains shown)
VH: QSVEESGGRLVTPGTPLTLTCTVSGFSLSNYAMSWVRQAPGKGLEWIGIIYTTGFTYYASWVKGRFTISKTSTTVDLKITSPTTEDTATYFCARGLATYVSPPTRLDLWGQGTLVTVSS
VL: AQVLTQTPSPVSAAVGGTVTINCQASQSIYNSKNLAWYQQKPGQPPKLLIYSASTLASGVPSRFKGSGSGTQFTLTISDLECDDAATYYCQGEFSCSSVDCATFGGGTEVVVK
notes: also called OX116
Take B4: the Optical Density (OD) was determined as 0.07 OD in assay [5], 0.07 OD in assay [7], 0.16 OD in assay [8] and 0.14 OD in assay [12]. Further, the Fluorescence Intensity Geomean (normalized to background) (fold over background) in [6] amounted to 1; in [13] it was 1.7; in [14], 1; in assay [15], 0.8. Also, the binding result in [9], in [10] and in assay [11] was “no binding (tested: 100 µg/ml)” each time.

B5: 110 (VR12112) (antibody, V domains shown)
VH: QSVEESGGRLVTPGTPLTLTCTVSGFSLSSYAMIWVRQAPGKGLEWIGIINSSDNTHYATWAKGRFTISKTSTTVDLKITSPTTEDTATYFCARDPYDYGYGWYFDLWGPGTLVTVSS
VL: AQVLTQTPSPVSAAVGGTVTINCQASQSVFNNKNLAWYQQKPGQPPKLLIYKASTLASGVSSRFKGSGSGTQFALTISGVQCDDAATYYCQGEFSCSSTDCVTFGGGTEVVVK
notes: V regions were 'cloned as either rabbit or mouse full length antibodies'; also called OX110; antibody 110
In the case of B5, the Optical Density (OD) turned out to be 0.22 OD in [5], 0.53 OD in [7], 0.86 OD in assay [8] and 0.94 OD in assay [12]. The Fluorescence Intensity Geomean (normalized to background) (fold over background) in [6] amounted to 1.2; in [13], 13.6; in [14], 3.3. Also, the binding result in assay [9], in assay [10] and in [11] was “no binding (tested: 100 µg/ml)” in each case.

B6: OX16 scFv (scFv)
scFv: DAEVQLVESGGGLVKPGGSLKLSCAASGFTFSNYAMSWVRQTPEKRLEWVAAINSNGGSAYYPDTVKDRFTISRDNAKNTLYLQMSSLRSEDTALYYCARRFYYDYGWFAYWGQGTLVTVSSGGGGSGGGGSGGGGSDIVLTQSPASLSASVGETVTITCRASENIDSYLAWYQQKQGKSPQLLVYAATLLADGVPSRFSGSGSGTQYSLKINSLQSEDVARYYCQHYYSSPWTFGGGTKLEIKSGLEVLFQGPGSGLNDIFEAQKIEWHEHHHHHH
modifications: biotinylated on the C-terminal biotinylation tag (SPR only)
notes: The entry holds the leader, VH, Gly-Ser linker, VL, 3C site, BirA tag and His tag; For crystallisation the BirA and His tags were cut off with 3C protease; also called 16 ScFv full; single chain variable construct of OX16
Consider B6, for which the Kd was determined as 476 nM in [20], 1270 nM in assay [21], 860 nM in [22] and 1010 nM in [23].

The values above are taken from patent publication US20250382372A1 (OXFORD UNIVERSITY INNOVATION, published 2025).
